Starred links: 1 amine or outer side, 2 acyl side, 3 side chain; linkers in the order of their positions; H or OH if unused. Non-standard residues stand in square brackets, D forms with d. *: point of attachment. AC4Abu = α-carboxy-4-aminobutyric acid, O=C(C(CCN[*:1])C(=O)[*:3])[*:2]; Oic = O=C(O)[C@@H]1C[C@@H]2CCCC[C@@H]2N1; Phe(4-Cl) = N[C@@H](Cc1ccc(Cl)cc1)C(=O)O; γGlu = O=C(O)[C@H](CCC(=O)[*:2])N[*:1]; 2Nal = N[C@@H](Cc1ccc2ccccc2c1)C(=O)O; NMeR = CN[C@@H](CCCNC(=N)N)C(=O)O; Tridecanoyl = CCCCCCCCCCCCC(=O)*; hArg = N=C(N)NCCCC[C@H](N)C(=O)O; Cha = N[C@@H](CC1CCCCC1)C(=O)O; αMeL = CC(C)C[C@](C)(N)C(=O)O; αMeP = C[C@@]1(C(=O)O)CCCN1; Nle = CCCC[C@H](N)C(=O)O; AEEA = NCCOCCOCC(=O)O; Aib = CC(C)(N)C(=O)O; BLeu = β-leucine
T1: human APJ receptor (human, UniProt P35414 1-380)
T1 sequence (looked up): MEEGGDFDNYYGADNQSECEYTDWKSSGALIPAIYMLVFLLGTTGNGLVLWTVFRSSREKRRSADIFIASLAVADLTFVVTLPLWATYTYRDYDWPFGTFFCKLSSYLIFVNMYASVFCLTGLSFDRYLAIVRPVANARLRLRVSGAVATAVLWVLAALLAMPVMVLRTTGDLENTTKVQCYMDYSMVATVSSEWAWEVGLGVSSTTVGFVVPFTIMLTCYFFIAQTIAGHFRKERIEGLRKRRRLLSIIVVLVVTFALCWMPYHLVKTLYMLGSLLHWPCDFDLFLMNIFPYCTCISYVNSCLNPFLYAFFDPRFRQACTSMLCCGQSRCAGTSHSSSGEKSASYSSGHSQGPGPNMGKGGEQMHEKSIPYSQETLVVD

T2: rat APJ receptor (rat, UniProt Q9JHG3 1-377)
T2 sequence (looked up): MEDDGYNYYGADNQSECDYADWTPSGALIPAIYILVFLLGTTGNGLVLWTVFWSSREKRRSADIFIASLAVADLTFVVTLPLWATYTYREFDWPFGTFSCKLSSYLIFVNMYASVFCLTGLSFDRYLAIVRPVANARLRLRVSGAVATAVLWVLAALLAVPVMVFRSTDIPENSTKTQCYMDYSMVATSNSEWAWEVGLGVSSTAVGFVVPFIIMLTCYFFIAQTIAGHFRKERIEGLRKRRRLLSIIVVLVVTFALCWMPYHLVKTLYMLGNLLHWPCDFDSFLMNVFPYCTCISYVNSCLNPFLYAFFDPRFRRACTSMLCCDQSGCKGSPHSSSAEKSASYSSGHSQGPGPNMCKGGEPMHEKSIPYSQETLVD

B1: Apelin polypeptide SEQ ID NO: 476 (peptide)
peptide: Tridecanoyl-[γGlu][AEEA][AEEA]QRE[NMeR]LSHKGP[Nle]P[Phe(4-Cl)]-OH
SMILES: CCCCCCCCCCCCC(=O)N[C@@H](CCC(=O)NCCOCCOCC(=O)NCCOCCOCC(=O)N[C@@H](CCC(N)=O)C(=O)N[C@@H](CCCNC(=N)N)C(=O)N[C@@H](CCC(=O)O)C(=O)N(C)[C@@H](CCCNC(=N)N)C(=O)N[C@@H](CC(C)C)C(=O)N[C@@H](CO)C(=O)N[C@@H](Cc1c[nH]cn1)C(=O)N[C@@H](CCCCN)C(=O)NCC(=O)N1CCC[C@H]1C(=O)N[C@@H](CCCC)C(=O)N1CCC[C@H]1C(=O)N[C@@H](Cc1ccc(Cl)cc1)C(=O)O)C(=O)O
B2: Apelin polypeptide SEQ ID NO: 360 (peptide)
peptide: Tridecanoyl-[γGlu][AEEA][AEEA]QRP[hArg][αMeL]SHKG[Oic][Nle]P[Phe(4-Cl)]-OH
SMILES: CCCCCCCCCCCCC(=O)N[C@@H](CCC(=O)NCCOCCOCC(=O)NCCOCCOCC(=O)N[C@@H](CCC(N)=O)C(=O)N[C@@H](CCCNC(=N)N)C(=O)N1CCC[C@H]1C(=O)N[C@@H](CCCCNC(=N)N)C(=O)N[C@@](C)(CC(C)C)C(=O)N[C@@H](CO)C(=O)N[C@@H](Cc1c[nH]cn1)C(=O)N[C@@H](CCCCN)C(=O)NCC(=O)N1[C@H](C(=O)N[C@@H](CCCC)C(=O)N2CCC[C@H]2C(=O)N[C@@H](Cc2ccc(Cl)cc2)C(=O)O)C[C@@H]2CCCC[C@@H]21)C(=O)O
B3: Apelin polypeptide SEQ ID NO: 404 (peptide)
peptide: Tridecanoyl-[AC4Abu][AEEA][AEEA]QRP[hArg][αMeL]SHKGP[Nle]P[2Nal]-OH
SMILES: CCCCCCCCCCCCC(=O)NCCC(C(=O)O)C(=O)NCCOCCOCC(=O)NCCOCCOCC(=O)N[C@@H](CCC(N)=O)C(=O)N[C@@H](CCCNC(=N)N)C(=O)N1CCC[C@H]1C(=O)N[C@@H](CCCCNC(=N)N)C(=O)N[C@@](C)(CC(C)C)C(=O)N[C@@H](CO)C(=O)N[C@@H](Cc1c[nH]cn1)C(=O)N[C@@H](CCCCN)C(=O)NCC(=O)N1CCC[C@H]1C(=O)N[C@@H](CCCC)C(=O)N1CCC[C@H]1C(=O)N[C@@H](Cc1ccc2ccccc2c1)C(=O)O
B4: Apelin polypeptide SEQ ID NO: 308 (peptide)
peptide: Tridecanoyl-[γGlu][AEEA][AEEA]QRP[hArg][Cha]SHKG[Oic][Nle]P[Phe(4-Cl)]-OH
SMILES: CCCCCCCCCCCCC(=O)N[C@@H](CCC(=O)NCCOCCOCC(=O)NCCOCCOCC(=O)N[C@@H](CCC(N)=O)C(=O)N[C@@H](CCCNC(=N)N)C(=O)N1CCC[C@H]1C(=O)N[C@@H](CCCCNC(=N)N)C(=O)N[C@@H](CC1CCCCC1)C(=O)N[C@@H](CO)C(=O)N[C@@H](Cc1c[nH]cn1)C(=O)N[C@@H](CCCCN)C(=O)NCC(=O)N1[C@H](C(=O)N[C@@H](CCCC)C(=O)N2CCC[C@H]2C(=O)N[C@@H](Cc2ccc(Cl)cc2)C(=O)O)C[C@@H]2CCCC[C@@H]21)C(=O)O
B5: Apelin polypeptide SEQ ID NO: 356 (peptide)
peptide: Tridecanoyl-[γGlu][AEEA][AEEA]QRP[hArg]LSHKG[Oic][Nle]P[Phe(4-Cl)]-OH
SMILES: CCCCCCCCCCCCC(=O)N[C@@H](CCC(=O)NCCOCCOCC(=O)NCCOCCOCC(=O)N[C@@H](CCC(N)=O)C(=O)N[C@@H](CCCNC(=N)N)C(=O)N1CCC[C@H]1C(=O)N[C@@H](CCCCNC(=N)N)C(=O)N[C@@H](CC(C)C)C(=O)N[C@@H](CO)C(=O)N[C@@H](Cc1c[nH]cn1)C(=O)N[C@@H](CCCCN)C(=O)NCC(=O)N1[C@H](C(=O)N[C@@H](CCCC)C(=O)N2CCC[C@H]2C(=O)N[C@@H](Cc2ccc(Cl)cc2)C(=O)O)C[C@@H]2CCCC[C@@H]21)C(=O)O
B6: Apelin polypeptide SEQ ID NO: 529 (peptide)
peptide: Tridecanoyl-[γGlu][AEEA][AEEA][dQ]RP[Nle][Cha]SAKG[Oic][Nle][Aib][Phe(4-Cl)]-OH
SMILES: CCCCCCCCCCCCC(=O)N[C@@H](CCC(=O)NCCOCCOCC(=O)NCCOCCOCC(=O)N[C@H](CCC(N)=O)C(=O)N[C@@H](CCCNC(=N)N)C(=O)N1CCC[C@H]1C(=O)N[C@@H](CCCC)C(=O)N[C@@H](CC1CCCCC1)C(=O)N[C@@H](CO)C(=O)N[C@@H](C)C(=O)N[C@@H](CCCCN)C(=O)NCC(=O)N1[C@H](C(=O)N[C@@H](CCCC)C(=O)NC(C)(C)C(=O)N[C@@H](Cc2ccc(Cl)cc2)C(=O)O)C[C@@H]2CCCC[C@@H]21)C(=O)O
B7: Apelin polypeptide SEQ ID NO: 528 (peptide)
peptide: Tridecanoyl-[γGlu][AEEA][AEEA][dQ]RP[Nle][Cha]SHKG[Oic][Nle][Aib][Phe(4-Cl)]-OH
SMILES: CCCCCCCCCCCCC(=O)N[C@@H](CCC(=O)NCCOCCOCC(=O)NCCOCCOCC(=O)N[C@H](CCC(N)=O)C(=O)N[C@@H](CCCNC(=N)N)C(=O)N1CCC[C@H]1C(=O)N[C@@H](CCCC)C(=O)N[C@@H](CC1CCCCC1)C(=O)N[C@@H](CO)C(=O)N[C@@H](Cc1c[nH]cn1)C(=O)N[C@@H](CCCCN)C(=O)NCC(=O)N1[C@H](C(=O)N[C@@H](CCCC)C(=O)NC(C)(C)C(=O)N[C@@H](Cc2ccc(Cl)cc2)C(=O)O)C[C@@H]2CCCC[C@@H]21)C(=O)O
B8: Apelin polypeptide SEQ ID NO: 428 (peptide)
peptide: Tridecanoyl-[γGlu][AEEA][AEEA]QRP[Nle]LSHKGP[Nle]P[Phe(4-Cl)]-OH
SMILES: CCCCCCCCCCCCC(=O)N[C@@H](CCC(=O)NCCOCCOCC(=O)NCCOCCOCC(=O)N[C@@H](CCC(N)=O)C(=O)N[C@@H](CCCNC(=N)N)C(=O)N1CCC[C@H]1C(=O)N[C@@H](CCCC)C(=O)N[C@@H](CC(C)C)C(=O)N[C@@H](CO)C(=O)N[C@@H](Cc1c[nH]cn1)C(=O)N[C@@H](CCCCN)C(=O)NCC(=O)N1CCC[C@H]1C(=O)N[C@@H](CCCC)C(=O)N1CCC[C@H]1C(=O)N[C@@H](Cc1ccc(Cl)cc1)C(=O)O)C(=O)O
B9: Apelin polypeptide SEQ ID NO: 376 (peptide)
peptide: Tridecanoyl-[γGlu][AEEA][AEEA]QRP[NMeR][αMeL]SHKG[Oic][Nle][αMeP][Phe(4-Cl)]-OH
SMILES: CCCCCCCCCCCCC(=O)N[C@@H](CCC(=O)NCCOCCOCC(=O)NCCOCCOCC(=O)N[C@@H](CCC(N)=O)C(=O)N[C@@H](CCCNC(=N)N)C(=O)N1CCC[C@H]1C(=O)N(C)[C@@H](CCCNC(=N)N)C(=O)N[C@@](C)(CC(C)C)C(=O)N[C@@H](CO)C(=O)N[C@@H](Cc1c[nH]cn1)C(=O)N[C@@H](CCCCN)C(=O)NCC(=O)N1[C@H](C(=O)N[C@@H](CCCC)C(=O)N2CCC[C@@]2(C)C(=O)N[C@@H](Cc2ccc(Cl)cc2)C(=O)O)C[C@@H]2CCCC[C@@H]21)C(=O)O
B10: Apelin polypeptide SEQ ID NO: 385 (peptide)
peptide: Tridecanoyl-[γGlu][AEEA][AEEA]QRP[NMeR][αMeL]SHKG[Oic][Nle]P[Phe(4-Cl)]-OH
SMILES: CCCCCCCCCCCCC(=O)N[C@@H](CCC(=O)NCCOCCOCC(=O)NCCOCCOCC(=O)N[C@@H](CCC(N)=O)C(=O)N[C@@H](CCCNC(=N)N)C(=O)N1CCC[C@H]1C(=O)N(C)[C@@H](CCCNC(=N)N)C(=O)N[C@@](C)(CC(C)C)C(=O)N[C@@H](CO)C(=O)N[C@@H](Cc1c[nH]cn1)C(=O)N[C@@H](CCCCN)C(=O)NCC(=O)N1[C@H](C(=O)N[C@@H](CCCC)C(=O)N2CCC[C@H]2C(=O)N[C@@H](Cc2ccc(Cl)cc2)C(=O)O)C[C@@H]2CCCC[C@@H]21)C(=O)O
B11: Apelin polypeptide SEQ ID NO: 386 (peptide)
peptide: Tridecanoyl-[γGlu][AEEA][AEEA][dQ]RP[NMeR][αMeL]SHKG[Oic][Nle]P[Phe(4-Cl)]-OH
SMILES: CCCCCCCCCCCCC(=O)N[C@@H](CCC(=O)NCCOCCOCC(=O)NCCOCCOCC(=O)N[C@H](CCC(N)=O)C(=O)N[C@@H](CCCNC(=N)N)C(=O)N1CCC[C@H]1C(=O)N(C)[C@@H](CCCNC(=N)N)C(=O)N[C@@](C)(CC(C)C)C(=O)N[C@@H](CO)C(=O)N[C@@H](Cc1c[nH]cn1)C(=O)N[C@@H](CCCCN)C(=O)NCC(=O)N1[C@H](C(=O)N[C@@H](CCCC)C(=O)N2CCC[C@H]2C(=O)N[C@@H](Cc2ccc(Cl)cc2)C(=O)O)C[C@@H]2CCCC[C@@H]21)C(=O)O

Target: T1, human APJ receptor
Test: cell-based or functional assay

Binder	EC50 Human APJ Receptor (GTPγS assay) [pM]
B1	346
B2	51.9
B3	298
Tridecanoyl-[γGlu][AEEA][AEEA][dQ]RP[hArg][BLeu]SHKG[Oic][Nle]P[Phe(4-Cl)]-OH [Apelin polypeptide SEQ ID NO: 378]	260
B4	86.7
B5	320
B6	5260
B7	5630
B8	400
B9	238
B10	68.8
B11	93.4

Target: T2, rat APJ receptor
Test: cell-based or functional assay

Binder	EC50 Rat APJ Receptor (GTPγS assay) [pM]
B1	872
B2	82.7
B3	362
Tridecanoyl-[γGlu][AEEA][AEEA][dQ]RP[hArg][BLeu]SHKG[Oic][Nle]P[Phe(4-Cl)]-OH [Apelin polypeptide SEQ ID NO: 378]	412
B4	180
B5	289
B6	24000
B7	21800
B8	494
B9	414
B10	170
B11	261
